Assay results reported in the supplement of paper PMC10567573.

B1: EMD (parent)
chain: YQSKGYNDDYYEESYFTTRTYGEP
B2: S100A14 (parent)
chain: KIANLGSCNDSKLEFRSFWELIGE

Variants of: B1
Experiment: protein stability index of a GFP-peptide fusion (GPS, HEK-293T) (PSI 1-6); higher = more stable
Conditions: c terminus: a fixed tail appended
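Note: lentivirally expressed fusions sorted by FACS into six bins by GFP to DsRed ratio, PSI derived from sequencing read proportions per bin multiplied by bin number.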

Variant	protein stability index
G22S	2.07
G22I	2.13
G22T	2.49
G22H	2.13
G22W	1.93
G22N	2.46
G22P	2.27
G22K	2.85
G22E	2.76
G22M	1.96
G22Q	2.25
G22Y	1.49
G22A	2.1
G22R	2.28
G22V	2.02
G22C	1.92
G22F	1.77
G22D	2.23
G22L	2.01
T18K	2.65
T18I	1.77
T18V	1.95
T18C	2.08
T18S	2.38
T18W	2.02

Variant	protein stability index
T18L	2.11
T18N	2.5
T18D	2.46
T18Q	2.3
T18A	2.31
T18R	2.79
T18E	2.44
T18G	2.09
T18P	1.88
T18H	2.17
T18M	2.04
T18F	1.39
T18Y	1.76
T17L	2.42
T17K	2.56
T17N	2.35
T17F	1.85
T17R	2.44
T17P	2.4
T17I	2.1
T17H	2.07
T17W	2.15
T17G	2.82
T17Y	2.23
T17V	2.13

Variant	protein stability index
T17M	1.71
T17S	2.48
T17Q	2.31
T20W	1.46
T20E	2.52
T20S	2.33
T20I	1.73
T20P	2.17
T20G	2.6
T20L	2.4
T20M	2.29
T20Y	1.44
T20Q	1.86
T20N	2.53
T20V	2.1
T20F	2.23
T20D	2.52
T20R	2.1
T20A	2.15
T20K	2.05
T20C	2.26
T20H	2.1
Y21C	2.81
Y21H	2.86
Y21A	2.76

Variant	protein stability index
Y21M	2.97
Y21T	2.27
Y21D	3.06
Y21N	2.68
Y21G	2.98
Y21E	3.18
Y21K	2.52
Y21Q	2.53
Y21F	2.02
Y21W	1.96
Y21V	2.93
Y21S	2.77
Y21R	2.46
Y21L	2.32
Y21P	2.76
Y21I	2.39
P24F	1.57
P24Y	1.83
P24W	1.74
P24M	2.28
P24T	1.91
P24H	1.97
P24A	2.28
P24K	2.58
P24L	2.1

Variant	protein stability index
P24G	2.51
P24I	1.86
P24E	2.12
P24N	2.15
P24C	2.48
P24D	2.89
P24Q	2.52
P24R	2.05
P24S	2.29
P24V	1.85
E23M	1.55
E23Q	1.94
E23A	1.7
E23Y	1.99
E23C	2.12
E23V	2.48
E23F	1.51
E23T	2.24
E23P	2.44
E23G	2
E23N	2.42
E23I	1.92
E23S	2.12
E23L	2.18
E23H	2.19

Variant	protein stability index
E23K	2.09
E23D	2.28
E23W	2.35
E23R	1.91
R19V	2.26
R19Q	2.88
R19N	2.87
R19Y	2.52
R19A	2.29
R19M	2.35
R19W	2.03
R19E	3.12
R19L	2.21
R19T	2.81
R19H	2.5
R19F	2.11
R19G	3.07
R19P	2.53
R19D	3.08
R19S	2.53
R19I	2.09
R19C	2.08
R19K	2.46

Variants of: B2
Experiment: as above
Conditions: c terminus: a fixed tail appended

Variant	protein stability index
I2A	1.77
I2C	1.22
K1Q	2.02
K1G	2.04
K1F	2.99
K1A	1.98
K1N	1.41
K1D	1.86
K1R	1.59
K1C	1.92
K1I	1.79
K1T	2.13
K1E	1.84
K1M	1.59
K1P	1.95
K1H	1.61
K1W	3.31
K1L	1.15
K1S	2.19
